Test results taken from patent publication US20250381241, “METHODS AND COMPOSITIONS TO MODULATE RIOK2” (Dana-Farber Cancer Institute, Inc., published 2025).

B1: GATA2-WT duplex (dsDNA)
DNA 1: CTTGGGCTTTCCTCCCACCCGGGACTGGTG
DNA 2: CACCAGTCCCGGGTGGGAGGAAAGCCCAAG
B2: RUNX3-WT duplex (dsDNA)
DNA 1: CCGGGCGCCGCCCCCTGCGCCCTGAGGCCC
DNA 2: GGGCCTCAGGGCGCAGGGGGCGGCGCCCGG
B3: SPI1-WT duplex (dsDNA)
DNA 1: AAGGGGACTATCTCCCAGCGGCAGGCCCTT
DNA 2: AAGGGCCTGCCGCTGGGAGATAGTCCCCTT
B4: GATA1-WT duplex (dsDNA)
DNA 1: ACACACCTGTAGTCCCAGCTACTCAGGAGG
DNA 2: CCTCCTGAGTAGCTGGGACTACAGGTGTGT

target: RIOK2 (rhRIOK2, full length) (Homo sapiens, UniProt Q9BVS4 SEQ:1-552); test: EMSA; low-salt buffer, 4 C, protein:DNA 5:1; details: tags: GST; Abcam
Sequence (Q9BVS4 whole entry): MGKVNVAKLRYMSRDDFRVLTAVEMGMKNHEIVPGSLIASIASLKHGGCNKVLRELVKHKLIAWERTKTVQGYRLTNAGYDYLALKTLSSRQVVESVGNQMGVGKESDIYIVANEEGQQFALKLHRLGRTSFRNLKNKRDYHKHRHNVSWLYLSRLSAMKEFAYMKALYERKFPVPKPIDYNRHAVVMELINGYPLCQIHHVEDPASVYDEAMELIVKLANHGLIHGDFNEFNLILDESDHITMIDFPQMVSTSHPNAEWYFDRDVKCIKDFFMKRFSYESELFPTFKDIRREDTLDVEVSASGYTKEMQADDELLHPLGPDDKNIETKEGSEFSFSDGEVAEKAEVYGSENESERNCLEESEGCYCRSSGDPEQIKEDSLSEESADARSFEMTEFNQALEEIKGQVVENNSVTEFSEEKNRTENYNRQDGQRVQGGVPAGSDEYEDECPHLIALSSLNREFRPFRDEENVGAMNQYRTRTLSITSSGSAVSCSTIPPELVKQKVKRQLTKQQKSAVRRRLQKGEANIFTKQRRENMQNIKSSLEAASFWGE
Procedure: Recombinant human GST-tagged RIOK2 (rhRIOK2, Abcam) was incubated with duplex DNA (Table 5) at 5:1 molar ratio in a low-salt buffer for 20-30 minutes at 4° C. and 2% agarose gel was cast and cooled to 4° C. The DNA-protein mixture was supplemented with 0.22p filtered 50% glycerol solution to facilitate loading. The gel was run for 1.5 hours at 4° C., followed by incubation in ethidium bromide solution for 30 minutes and visualized using ChemiDoc Touch Imaging system (Bio-Rad). ImageJ was used to quantify band shifts.

Binding result, binds:
B1
B2
B3
B4
